According to US20230218735A1 (Pfizer, published 2023):

These binders were tested against T1, genetically modified and chemically inactivated C. difficile toxoid A (Clostridium difficile, UniProt P16154 2-2710) (assay: ITC).
T1 construct: also called TxdA; the toxoid

Row | Binder | DH | Kd | Stoichiometry
1 | hCDIFA-29 (antibody, V domains shown) VH: EVQLLESGAEVKKPGASIRVSCKASGHSFTDSFTDYYFHWVRQAPGQGLEWMGMINPSVGSTNYAQKFQGRVTLTRDTSTHTVYMELSSLRSEDTAVYFCARDPWFCSRGTSCYYFGLWGQGTLVTVSS VL: DIQLTQSPSSLSASVGDSVTITCRASQSISTYLNWYQQKPGKAPKLLIYDASSLLSGVPSRFSGGGSGTDFTLTISSLQPEDFATYYCQQSDISPPVFGRGTKVEIKR | -15.6 kcal/mol | 74 nM | 9.2
2 | hCDIFA-48 (antibody, V domains shown) VH: QVQLVQSGAEVKKPGASVKVSCKASGYTFTTYAMHWVRQAPGHRLEWMGWINPVNGNSKHSQNFQGRVTITRDTSASTVYMELSSLRSEDTAVYYCARDTSSGVILANNFDYWGQGTLVTVSS VL: DIVMTQSPATLSLSPGERATLSCRASQSVDSYLTWYQQKPGQAPRLLIYDSSNRATGIPARFSGSGSGTDFTLTISSLEPEDFAVYYCHQRSNWPNTFGQGTKVEIKR | -7.2 kcal/mol | 87 nM | 0.77
3 | hCDIFA-26 (antibody, V domains shown) VH: EVQLLESGAEVKKPGESLRISCNCSGYSFTSYWIGWVRQMPGEGLEWMGLIQPGGDSYPRYSPSFQGQVTISADKSISTAYLQWRSLKASDTAMYYCARRGFDHWGQGTLVTVSS VL: NFMLTQPPSASGAPGQRVTISCSGSSSNIGSNTVNWYQQLPGTAPKLLIYSNIQRPSGVPDRFSGSKSGTSASLAISGLQSDDEADYYCSAWDDSLNGYVFGTGTKVTVLG | -9.1 kcal/mol | 8 nM | 1.98
4 | hCDIFA-33 (antibody, V domains shown) VH: QVQLVQSGGGLVQPGGSLRLSCVASGFTFSSYAMTWVRQAPGMGLEWVSTISLSGSTIYYADSVKGRFTISRDNPKNTLYLQMNSLRAEDTAVYYCAEGQGAFDFWGQGTMVTVSS VL: NFMLTQPPSASGTPGQRVTISCSGSTSNIGGNTVNWYQQLPGTAPKLLIYSNIQRPSGVPDRFSGSKSGTSASLAIRGLRSEDEADYYCSTWDDSRKGVVFGGGTKLTVLG | -3 kcal/mol | 31 nM | 0.83

These binders were tested against C. difficile toxin A (Clostridium difficile, UniProt P16154 1-2710) (assay: cell-based or functional assay).

Row | Binder | EC50 TcdA [RLU], toxin neutralization assay (TNA) on IMR90 cells
5 | hCDIFA-12 (antibody, V domains shown) VH: QVQLVQSGAEVKKPGASVKVSCKASGYTFSDSYMHWVRQAPGQGLEWMGRINPNSGGTNYAQKFQGRVTMTRDTSIKTVYMELSRLRSDDGAIYYCARGMGRTTTGLFDLWGQGTLVTVSS VL: DIVMTQSPATLSLSPGERATLSCKANESVGSYLVWYQQKFGQAPRLLIYDASNRATGIPARFSGSGSGTDFTLTISSLEPEDFAVYYCQQRSNWPPTFGGGTKVDIKR | ~115 RLU
6 | hCDIFA-14 (antibody, V domains shown) VH: EVQLVQSGAEVKKPGSSVKVSCKASGGTFRSYAISWVRQAPGQGLEWMGGFIPIPGIRNYAQKFQGRLTISADESTSTGYMELSSLTSEDTAVYYCARGLGRVSHYFYYMDVWGKGTTVTVSS VL: not shown | 19800 RLU
7 | hCDIFA-13 (antibody, V domains shown) VH: QVQLVQSGAEVKKPGASVTVSCRTSGYTFTNDYVHWVRQAPGQGLEWVGLINPSGGNTVYAQSFQGRVTMTRDTSTSTVYMELSSLRSEDTAVYYCARVVHDYGKFDPWGQGTPVTVSS VL: SYELTQPASVSGSPRQSITISCTGTSSDVGNYNLVSWYQQYPGKAPRLIIFEVRQRPSGVSNRFSGSKSGNTASLTISGLQAADEADYYCCSYAGRSIWVFGGGTKLTVLG | 26300 RLU
8 | hCDIFA-16 (antibody, V domains shown) VH: QVQLQESGPGLVKPSETLSLTCTVSGDSISDYYWSWIRQPPGRGLEWIGYIYYSGSTNYNPSLKSRLTISVDTSKNQFSLNLSSVTAADTAVYYCARSMGHYDFWNTYFPCFDPWGQGTLVTVSS VL: EIVMTQSPGTLSLSPGERATLSCRASQSVSSGYLAWYQQKPGQAPRLLIYGASSRATGIPDRFRGSGSGTDFTLTISRLEPEDFAVYYCQQYGSSPLTFGGGTKLEIKR | 298 RLU
